Measured values from paper PMC6049616.

Biological target: semiSWEET
Experiment: native MS

stoichiometry N: 2
Substance: semiSWEET (natural protein)
